{"source": "paper PMC8189181", "target": "Fzd1-mApple", "assay": "quasi-PIE fluorescence cross-correlation spectroscopy (FCCS); live zebrafish embryos co-expressing the EGFP- and mApple-tagged proteins; dorsal cerebellum and midbrain hindbrain boundary; room temperature; FLCS-based statistical filtering of spectral cross talk; apparent Kd", "data": [{"substance": "Wnt3C80A-EGFP (ligand)", "values": [{"measurement": "Kd", "value": 313, "unit": "nM"}]}]}
